Data as given in article PMC5817723, “^99mTc-HYNIC-(tricine/EDDA)-FROP peptide for MCF-7 breast tumor targeting and imaging” (Journal of Biomedical Science, 2018).
Entries after “also recorded” stand apart in the source; their conditions may differ. Like-named read-outs stand apart in the source and are kept apart here. Residues, ends and D or L forms follow the SMILES beside them. *: point of attachment. HYNIC = NNc1ccc(C(=O)*)cn1

Legend:
[1] = Biodistribution in MCF-7 tumor-bearing nude mice; assay type: in vivo; conditions: female, C57 nu/nu, mouse, iv, total radioactivity; for tissue uptake at 0.5 h / tissue to tissue ratio at 0.5 h: 30 min p.i.
Description: The all animal studies were approved by Research and Ethical Committees of Mazandaran University of Medical Sciences. For xenografting, female C57 nu/nu mice were injected subcutaneously on the right upper back with a suspension of 1 × 10^7 MCF-7 cells and Matrigel® (BD, USA) and the tumors were allowed to grow for about 7–8 weeks. Estradiol valerate was injected subcutaneously into nude mice for 1 week. After tumor size reached in 1 cm^3, this tumor was removed from mouse in aseptic condition and was mechanically squelched with a mortar and with adding complete medium. Squelch of tumor tissue was centrifuged at 1500 rpm for 7 min at 4 °C. The upper medium was removed from tube and then complete medium and estradiol were added to cells pellet. […] Xenografts were allowed to develop during 2 months and the average tumor size was 1.01 ± 0.24 g. The in vivo biodistribution of ^99mTc-HYNIC-(tricine/EDDA)-Lys-FROP was performed on tumor bearing mice at 15 and 30 min post-injection. The mice (four mice in each time group) were injected with 100 μL of HYNIC-(tricine/EDDA)-Lys-FROP (1 μg) via a lateral tail vein. Mice were sacrificed with injection of a lethal dose of ketamine/xylazine after 15 and 30 min. The blood was collected from the heart puncture and the mice were dissected. Major organs (tumor, blood, heart, lung, liver, kidney, spleen, salivary gland, stomach, intestine, muscle and bone) were placed into pre weighed gamma counter tubes and radioactivity in each organ and tissue was measured using a gamma counter and expressed as a percent injected dose (% ID/g).
To confirm that the radiolabeled peptide was taken up specifically by MCF-7 tumor in vivo, the biodistribution of ^99mTc-HYNIC-FROP was performed with co-injection of a 500-fold (0.5 mg) excess non-radiolabelled FROP-1 and radiolabelled peptide in mice (N = 3 mice in this group). The unlabeled peptide was injected at 30 min before the injection of radiolabeled peptide.

[2] = Stability in human plasma serum, RP-HPLC; assay type: in vitro ADME; conditions: 37 °C, triplicate
Description: Reversed phase-HPLC was performed on a Knauer HPLC systems (Knauer HPLC, Berlin, Germany) using a Lablogic radioactivity gamma detector with a Eurospher 100–5 C-18, 4.6 × 250 mm (Knauer, Berlin, Germany) column with a pre-column. (Knauer HPLC, Berlin, Germany) HPLC was run using a gradient of 0.1% TFA in H2O (solvent A) and 0.1% TFA in CH3CN (solvent B) at a flow rate of 1 mL/min. A gradient with solvents A and B was run as follows: 0 min, 10% B; 0–10 min, 10–30% B; 10–20 min, 30–80% B; and 20–25 min, 80–100% B, for a total time of 30 min.
The stability of ^99mTc-HYNIC-FROP in normal saline was evaluated using ITLC at various times (2, 4, 6 and 24 h) at room temperature. For serum stability, ^99mTc-HYNIC-FROP (30 μL) was incubated with freshly human plasma serum (90 μL) in triplicate at 37 °C. At 1 h of incubation, the plasma proteins were precipitated with a mixture of acetonitrile/ethanol (1:1 v/v) and centrifugation. The supernatant layer was filtered through a 0.22 μm filter and then the fraction was analyzed by RP-HPLC. Partition coefficient of ^99mTc-HYNIC-FROP was determined via method that previously was described.

Structure (SMILES): CSCC[C@H](NC(=O)[C@H](CC(C)C)NC(=O)[C@H](CCC(=O)O)NC(=O)[C@H](Cc1ccc(O)cc1)NC(=O)[C@H](CC(=O)O)NC(=O)[C@@H](N)CCC(=O)O)C(=O)N[C@@H](CC(=O)O)C(=O)N[C@@H](CC(C)C)C(=O)N[C@@H](CC(C)C)C(=O)N[C@@H](C)C(=O)N[C@@H](Cc1ccc(O)cc1)C(=O)N[C@@H](CC(C)C)C(=O)N[C@@H](CCCCNC(=O)c1ccc(NN)nc1)C(=O)O [^99mTc-HYNIC-FROP, metal not drawn] (H-EDYELMDLLAYLK(HYNIC)-OH)
- tissue uptake at 0.25 h ([1]; blood, 1 ug, i.v. tail vein 1 μg, 15 min p.i., n = 4, read-out: Blood uptake): 0.48 ± 0.09 %ID/g
- tissue uptake at 0.5 h ([1]; blood, 1 ug, i.v. tail vein 1 μg, n = 4, read-out: Blood uptake): 0.35 ± 0.1 %ID/g
- tissue uptake at 0.25 h ([1]; blood, Block: 500-fold (0.5 mg) excess unlabelled FROP-1, 15 min p.i., n = 3, read-out: Blood uptake): 0.69 ± 0.16 %ID/g
- tissue uptake at 0.25 h ([1]; bone, 1 ug, i.v. tail vein 1 μg, 15 min p.i., n = 4, read-out: Bone uptake): 0.18 ± 0.02 %ID/g
- tissue uptake at 0.5 h ([1]; bone, 1 ug, i.v. tail vein 1 μg, n = 4, read-out: Bone uptake): 0.24 ± 0.12 %ID/g
- tissue uptake at 0.25 h ([1]; heart, 1 ug, i.v. tail vein 1 μg, 15 min p.i., n = 4, read-out: Heart uptake): 0.49 ± 0.08 %ID/g
- tissue uptake at 0.5 h ([1]; heart, 1 ug, i.v. tail vein 1 μg, n = 4, read-out: Heart uptake): 0.26 ± 0.11 %ID/g
- tissue uptake at 0.25 h ([1]; heart, Block: 500-fold (0.5 mg) excess unlabelled FROP-1, 15 min p.i., n = 3, read-out: Heart uptake): 0.45 ± 0.03 %ID/g
- tissue uptake at 0.25 h ([1]; intestine, 1 ug, i.v. tail vein 1 μg, 15 min p.i., n = 4, read-out: Intestine uptake): 0.34 ± 0.09 %ID/g
- tissue uptake at 0.5 h ([1]; intestine, 1 ug, i.v. tail vein 1 μg, n = 4, read-out: Intestine uptake): 0.79 ± 0.25 %ID/g
- tissue uptake at 0.25 h ([1]; intestine, Block: 500-fold (0.5 mg) excess unlabelled FROP-1, 15 min p.i., n = 3, read-out: Intestine uptake): 0.64 ± 0.09 %ID/g
- tissue uptake at 0.25 h ([1]; 1 ug, MCF-7 tumor, i.v. tail vein 1 μg, 15 min p.i., n = 4, read-out: Tumor uptake): 0.25 ± 0.02 %ID/g
- tissue uptake at 0.5 h ([1]; 1 ug, MCF-7 tumor, i.v. tail vein 1 μg, n = 4, read-out: Tumor uptake): 0.38 ± 0.21 %ID/g
- tissue uptake at 0.25 h ([1]; MCF-7 tumor, Block: 500-fold (0.5 mg) excess unlabelled FROP-1, 15 min p.i., n = 3, read-out: Tumor uptake): 0.09 ± 0.02 %ID/g
- tissue uptake at 0.25 h ([1]; kidney, 1 ug, i.v. tail vein 1 μg, 15 min p.i., n = 4, read-out: Kidney uptake): 2.22 ± 0.16 %ID/g
- tissue uptake at 0.5 h ([1]; kidney, 1 ug, i.v. tail vein 1 μg, n = 4, read-out: Kidney uptake): 1.73 ± 0.15 %ID/g
- tissue uptake at 0.25 h ([1]; kidney, Block: 500-fold (0.5 mg) excess unlabelled FROP-1, 15 min p.i., n = 3, read-out: Kidney uptake): 2.97 ± 0.23 %ID/g
- tissue uptake at 0.25 h ([1]; liver, 1 ug, i.v. tail vein 1 μg, 15 min p.i., n = 4, read-out: Liver uptake): 0.2 ± 0.02 %ID/g
- tissue uptake at 0.5 h ([1]; liver, 1 ug, i.v. tail vein 1 μg, n = 4, read-out: Liver uptake): 0.14 %ID/g
- tissue uptake at 0.25 h ([1]; liver, Block: 500-fold (0.5 mg) excess unlabelled FROP-1, 15 min p.i., n = 3, read-out: Liver uptake): 0.26 ± 0.04 %ID/g
- tissue uptake at 0.25 h ([1]; lung, 1 ug, i.v. tail vein 1 μg, 15 min p.i., n = 4, read-out: Lung uptake): 0.45 ± 0.08 %ID/g
- tissue uptake at 0.5 h ([1]; lung, 1 ug, i.v. tail vein 1 μg, n = 4, read-out: Lung uptake): 0.41 ± 0.26 %ID/g
- tissue uptake at 0.25 h ([1]; lung, Block: 500-fold (0.5 mg) excess unlabelled FROP-1, 15 min p.i., n = 3, read-out: Lung uptake): 0.6 ± 0.04 %ID/g
- tissue uptake at 0.25 h ([1]; muscle, 1 ug, i.v. tail vein 1 μg, 15 min p.i., n = 4, read-out: Muscle uptake): 0.08 ± 0.01 %ID/g
- tissue uptake at 0.5 h ([1]; muscle, 1 ug, i.v. tail vein 1 μg, n = 4, read-out: Muscle uptake): 0.21 ± 0.16 %ID/g
- tissue uptake at 0.25 h ([1]; muscle, Block: 500-fold (0.5 mg) excess unlabelled FROP-1, 15 min p.i., n = 3, read-out: Muscle uptake): 0.15 ± 0.01 %ID/g
- tissue uptake at 0.25 h ([1]; salivary gland and thyroid, 1 ug, i.v. tail vein 1 μg, 15 min p.i., n = 4, read-out: S.T (Salivary Gland and Thyroid) uptake): 0.25 ± 0.03 %ID/g
- tissue uptake at 0.5 h ([1]; salivary gland and thyroid, 1 ug, i.v. tail vein 1 μg, n = 4, read-out: S.T (Salivary Gland and Thyroid) uptake): 0.32 ± 0.22 %ID/g
- tissue uptake at 0.25 h ([1]; salivary gland and thyroid, Block: 500-fold (0.5 mg) excess unlabelled FROP-1, 15 min p.i., n = 3, read-out: S.T (Salivary Gland and Thyroid) uptake): 0.25 ± 0.01 %ID/g
- tissue uptake at 0.25 h ([1]; spleen, 1 ug, i.v. tail vein 1 μg, 15 min p.i., n = 4, read-out: Spleen uptake): 0.15 ± 0.01 %ID/g
- tissue uptake at 0.5 h ([1]; spleen, 1 ug, i.v. tail vein 1 μg, n = 4, read-out: Spleen uptake): 0.28 ± 0.11 %ID/g
- tissue uptake at 0.25 h ([1]; spleen, Block: 500-fold (0.5 mg) excess unlabelled FROP-1, 15 min p.i., n = 3, read-out: Spleen uptake): 0.23 ± 0.07 %ID/g
- tissue uptake at 0.25 h ([1]; stomach, 1 ug, i.v. tail vein 1 μg, 15 min p.i., n = 4, read-out: Stomach uptake): 0.21 ± 0.01 %ID/g
- tissue uptake at 0.5 h ([1]; stomach, 1 ug, i.v. tail vein 1 μg, n = 4, read-out: Stomach uptake): 0.33 ± 0.12 %ID/g
- tissue uptake at 0.25 h ([1]; stomach, Block: 500-fold (0.5 mg) excess unlabelled FROP-1, 15 min p.i., n = 3, read-out: Stomach uptake): 0.26 ± 0.01 %ID/g
- tissue to tissue ratio at 0.25 h ([1]; tumor and blood, 1 ug, 15 min p.i., n = 4, read-out: Tumor/Blood ratio): 0.53 ± 0.15
- tissue to tissue ratio at 0.5 h ([1]; tumor and blood, 1 ug, n = 4, read-out: Tumor/Blood ratio): 1.09 ± 0.47
- tissue to tissue ratio at 0.25 h ([1]; tumor and blood, Block with excess FROP-1, 15 min p.i., n = 3, read-out: Tumor/Blood ratio): 0.14 ± 0.06
- tissue to tissue ratio at 0.25 h ([1]; tumor and bone, 1 ug, 15 min p.i., n = 4, read-out: Tumor/Bone ratio): 1.36 ± 0.28
- tissue to tissue ratio at 0.5 h ([1]; tumor and bone, 1 ug, n = 4, read-out: Tumor/Bone ratio): 1.57 ± 0.48
- tissue to tissue ratio at 0.25 h ([1]; tumor and bone, Block with excess FROP-1, 15 min p.i., n = 3, read-out: Tumor/Bone ratio): 0.4 ± 0.09
- tissue to tissue ratio at 0.25 h ([1]; tumor and liver, 1 ug, 15 min p.i., n = 4, read-out: Tumor/Liver ratio): 1.24 ± 0.28
- tissue to tissue ratio at 0.5 h ([1]; tumor and liver, 1 ug, n = 4, read-out: Tumor/Liver ratio): 2.62 ± 1.38
- tissue to tissue ratio at 0.25 h ([1]; tumor and liver, Block with excess FROP-1, 15 min p.i., n = 3, read-out: Tumor/Liver ratio): 0.36 ± 0.13
- tissue to tissue ratio at 0.25 h ([1]; tumor and muscle, 1 ug, 15 min p.i., n = 4, read-out: Tumor/Muscle ratio): 3.03 ± 0.12
- tissue to tissue ratio at 0.5 h ([1]; tumor and muscle, 1 ug, n = 4, read-out: Tumor/Muscle ratio): 1.94 ± 0.46
- tissue to tissue ratio ([1]; tumor and muscle, 1 ug, MCF-7 tumor-bearing nude mice, only 15 and 30 min p.i. tested, read-out: time of maximum tumor/muscle ratio): 15
- tissue to tissue ratio at 0.25 h ([1]; tumor and muscle, Block with excess FROP-1, 15 min p.i., n = 3, read-out: Tumor/Muscle ratio): 0.6 ± 0.12
- tissue to tissue ratio at 0.25 h ([1]; tumor and spleen, 1 ug, 15 min p.i., n = 4, read-out: Tumor/Spleen ratio): 1.61 ± 0.22
- tissue to tissue ratio at 0.5 h ([1]; tumor and spleen, 1 ug, n = 4, read-out: Tumor/Spleen ratio): 1.56 ± 1.04
- tissue to tissue ratio at 0.25 h ([1]; tumor and spleen, Block with excess FROP-1, 15 min p.i., n = 3, read-out: Tumor/Spleen ratio): 0.42 ± 0.14
- stability in human plasma serum ([2]; 30 μL in 90 μL fresh human plasma serum, 1 h, RP-HPLC radiodetection): stable; also recorded: the major radioactivity was still associated with ^99mTc-FROP
- remaining at 1 h ([2]; abstract statement, human plasma serum, protein precipitation acetonitrile/ethanol 1:1, RP-HPLC): ~98%
